Here are results for one molecule from patent US20200155602A1 (IMMATICS BIOTECHNOLOGIES, published 2020).

The target in this assay is T1, HLA-A*02:01 (human).
T1 construct: Peptide-receptive HLA-A*02:01 monomer obtained by UV cleavage of a UV-sensitive ligand; captured on streptavidin plates; also called peptide-receptive MHC molecules; MHC class I
Put plainly: UV-ligand exchange, anti-b2m ELISA; grade of peptide exchange yield (>10% = +; >20% = ++; >50 = +++; >75% = ++++). The source says: Candidate peptides for T cell based therapies according to the present invention were further tested for their MHC binding capacity (affinity). The individual peptide-MHC complexes were produced by UV-ligand exchange, where a UV-sensitive peptide is cleaved upon UV-irradiation, and exchanged with the peptide of interest as analyzed. Only peptide candidates that can effectively bind and stabilize the peptide-receptive MHC molecules prevent dissociation of the MHC complexes. To determine the yield of the exchange reaction, an ELISA was performed based on the detection of the light chain (β2m) of stabilized MHC complexes. The assay was performed as generally described in Rodenko et al. (Rodenko et al., 2006).
96 well MAXISorp plates (NUNC) were coated over night with 2 ug/ml streptavidin in PBS at room temperature, washed 4× and blocked for 1 h at 37° C. in 2% BSA containing blocking buffer. Refolded HLA-A*02:01/MLA-001 monomers served as standards, covering the range of 15-500 ng/ml. Peptide-MHC monomers of the UV-exchange reaction were diluted 100-fold in blocking buffer. Samples were incubated for 1 h at 37° C., washed four times, incubated with 2 ug/ml HRP conjugated anti-β2m for 1 h at 37° C., washed again and detected with TMB solution that is stopped with […]. Absorption was measured at 450 nm. […]
On the technique in general: ELISA stands for enzyme-linked immunosorbent assay.

Molecule SLTSFLISL registered a peptide exchange yield of 50 to 75%.
